# Measured values as given in patent publication US20250122303A1 (HUMMINGBIRD BIOSCIENCE PTE, published 2025).
# Where two headings read alike, the source gives them in different places.
# Legend:
# His-tagged human HER3 [1] = target: T1, His-tagged human HER3 (human, UniProt P21860 20-643); experiment: BLI (Octet QK384), antibody on anti-human IgG capture tips, His-tagged human HER3 in solution, global one-site fit
# T1 construct: Antigen of the BLI experiments and of the HER2-Fc dimerisation ELISA; also called HER3 His; not shown: His tag
# Method: (§1) The anti-HER3 antibody clones in IgG1 format were analysed for binding affinity to human HER3. Bio-Layer Interferometry (BLI) experiments were performed using the Octet QK384 system (ForteBio). anti-Human IgG Capture (AHC) Octet sensor tips (Pall ForteBio, USA) were used to anti-HER3 antibodies (25 nM). All measurements were performed at 25° C. with agitation at 1000 rpm. […] Sensograms were referenced for buffer effects and then fitted using the Octet QK384 user software (Pall ForteBio, USA). Kinetic responses were subjected to a global fitting using a one site binding model to obtain values for association (Kₒₙ), dissociation (Koff) rate constants and the equilibrium dissociation constant (KD). Only curves that could be reliably fitted with the software (R²>0.90) were included in the analysis.
# [2] = target: T2, human HER3 expressed on cells (HEK293 HER3 O/E cells) (human, UniProt P21860 20-1342); experiment: flow cytometry, HEK293 cells overexpressing human HER3 (293_OE HER3), 20 ug/ml antibody, FITC anti-Fc secondary; same antibody on 293 cells: 2.48; unstained 293: 0.14
# T2 construct: Also used here for HER3 on U2OS cells of the PathHunter kit and on cancer cell lines; also called HEK293 cells transfected with vector encoding human HER3; human HER3-expressing cells
# Method: (§2) The cells were washed thrice with FACS buffer (PBS with 5 mM EDTA and 0.5% BSA) and resuspended in FITC-conjugated anti-FC antibody (Invitrogen, USA) for 40 min at 2-8° C. Cells were washed again and resuspended in 200 μL of FACS flow buffer (PBS with 5 mM EDTA) for flow cytometric analysis using MACSQuant 10 (Miltenyi Biotec, Germany). After acquisition, all raw data were analyzed using Flowlogic software. Cells were gated using forward and side scatter profile percentage of positive cells was determined for native and overexpressing cell populations.
# His-tagged human HER3 [3] = target: T1, His-tagged human HER3; experiment: BLI (Octet QK384), antibody on anti-human IgG capture tips, His-tagged human HER3 35-278 nM, global 1:1 fit
# Method: as §1
# human HER3 polypeptide [4] = target: T3, human HER3 polypeptide (human, UniProt P21860 20-643); experiment: ELISA, plate coated with human HER3, antibody titrated, absorbance 450 nm, x axis Log([Ab]) (ug/ml)
# T3 construct: Recombinant antigen of the ELISAs; also called human HER3 (Sino Biological Inc.); human antigen HER3
# His-tagged human HER3 [5] = target: T1, His-tagged human HER3; experiment: BLI (Octet QK384), antibody on anti-human IgG capture tips, His-tagged human HER3 in solution, global 1:1 fit, R^2 = 0.9891, kon Error 1.04E+04; Response 0.1355 / 0.3221 / 0.4533 / 0.5944 at 35 / 39 (as printed in the table; graph label 69) / 139 / 278 nM
# Method: as §1
# His-tagged human HER3 [6] = target: T1, His-tagged human HER3; experiment: BLI (Octet QK384), antibody on anti-human IgG capture tips, His-tagged human HER3 in solution, global 1:1 fit, R^2 = 0.9917, kon Error 9.57E+03; Response 0.1296 / 0.2851 / 0.4098 / 0.5575 at 35 / 69 / 139 / 278 nM
# Method: as §1
# [7] = target: T2, human HER3 expressed on cells (HEK293 …); experiment: flow cytometry, HEK293 cells overexpressing human HER3 (293_OE HER3), 20 ug/ml antibody, FITC anti-Fc secondary; same antibody on 293 cells: 5.38; unstained 293: 0.14
# Method: as §2
# His-tagged human HER3 [8] = target: T1, His-tagged human HER3; experiment: BLI (Octet QK384), antibody on anti-human IgG capture tips, His-tagged human HER3 35-278 nM, global 1:1 fit; kdis Error 1.11E-04
# Method: as §1
# mouse HER3 = target: T4, mouse HER3 (mouse, UniProt Q61526 20-641); experiment: ELISA, plate coated with 0.1 ug/ml mouse HER3, antibody titrated, absorbance 450 nm
# T4 construct: also called mouse homologue of HER3 (Sino Biological Inc.); M. musculus HER3
# Method: (§3) ELISAs were used to determine the binding specificity of the antibodies. The antibodies were analysed for binding to human HER3 polypeptide, as well as respective mouse, rat and monkey homologues of HER3 (Sino Biological Inc., China). The antibodies were also analysed for their ability to bind to human EGFR and human HER2 (Sino Biological Inc., China).
# (§4) ELISAs were carried out according to standard protocols. Briefly, 96-well plates (Nunc, Denmark) were coated with 0.1 μg/ml of target polypeptide in phosphate-buffered saline (PBS) for 16 h at 4° C. After blocking for 1 h with 1% BSA in Tris buffer saline (TBS) at room temperature, the anti-HER3 antibody was serially diluted with the highest concentration being 10 μg/ml, and added to the plate. Post 1 h incubation at room temperature, plates were washed three times with TBS containing 0.05% Tween 20 (TBS-T) and were then incubated with a HRP-conjugated […] antibody (Life Technologies, Inc., USA) for 1 h at room temperature. After washing, plates were developed with colorimetric detection substrate 3,3′,5,5′-tetramethylbenzidine (Turbo-TMB; Pierce, USA) for 10 min. The reaction was stopped with 2M H₂SO₄, and OD was measured at 450 nm.
# His-tagged human HER3 [9] = target: T1, His-tagged human HER3; experiment: BLI (Octet QK384), antibody on anti-human IgG capture tips, His-tagged human HER3 in solution, global 1:1 fit, R^2 = 0.9898, kon Error 8.22E+03; Response 0.0794 / 0.1744 / 0.3278 / 0.5079 at 35 / 69 / 139 / 278 nM
# Method: as §1
# human HER3 polypeptide [10] = target: T3, human HER3 polypeptide; experiment: ELISA, plate coated with 0.1 ug/ml human HER3, antibody titrated, absorbance 450 nm
# Method: as §3, §4
# cynomolgus macaque HER3 = target: T5, cynomolgus macaque HER3 (cynomolgus macaque, UniProt G7PIG5 20-643); experiment: ELISA, plate coated with 0.1 ug/ml cynomolgus HER3, antibody titrated, absorbance 450 nm
# T5 construct: also called monkey homologue of HER3 (Sino Biological Inc.); HER3 cyno
# Method: as §3, §4
# human HER3 polypeptide [11] = target: T3, human HER3 polypeptide; experiment: ELISA, plate coated with 0.1 ug/ml human HER3, antibody titrated, absorbance 450 nm; remark: listed apart in the source
# Method: as §3, §4
# human EGFR = target: T6, human EGFR (human, UniProt P00533 25-645); experiment: ELISA, plate coated with 0.1 ug/ml human EGFR, antibody titrated, absorbance 450 nm
# T6 construct: also called human HER1 (EGFR) (Sino Biological Inc.)
# Method: as §3, §4
# rat HER3 = target: T7, rat HER3 (rat, UniProt Q62799 20-641, limits assumed); experiment: ELISA, plate coated with 0.1 ug/ml rat HER3, antibody titrated, absorbance 450 nm
# T7 construct: also called rat homologue of HER3 (Sino Biological Inc.); R. norvegicus HER3
# Method: as §3, §4
# [12] = target: T2, human HER3 expressed on cells (HEK293 …); experiment: flow cytometry on HEK293T HER3 O/E cells, 10 ug antibody as printed, FITC-conjugated anti-Fc secondary
# Method: The cells were washed with buffer (PBS with 2 mM EDTA and 0.5% BSA) and resuspended in FITC-conjugated anti-FC antibody (Invitrogen, USA) at 10 μg/ml for 20 min at 4° C. Cells were washed again and resuspended in 200 μL of FACS flow buffer (PBS with 5 mM EDTA) for flow cytometric analysis using MACSQuant 10 (Miltenyi Biotec, Germany). Unstained WT and transfected HEK293 cells were included in the analysis as negative controls. After acquisition, all raw data were analyzed using Flowlogic software. Cells were gated using forward and side scatter profile percentage of positive cells was determined for native and overexpressing cell populations.
# [13] = target: T2, human HER3 expressed on cells (HEK293 …); experiment: flow cytometry, HEK293 cells overexpressing human HER3, 20 ug/ml antibody, FITC anti-Fc secondary; same antibody on WT HEK293: 0.60
# Method: as §2
# [14] = target: T8, His-tagged FcγRIIIa (V158) (human, UniProt P08637 17-208); experiment: Bio-Layer Interferometry; His-tagged FcγRIIIa (V158) on anti-Penta-HIS tips, antibody in solution
# T8 construct: not shown: His tag
# Method: All measurements were performed at 25° C. with agitation at 1000 rpm. […] Sensograms were referenced for buffer effects and then fitted using the Octet QK384 user software (Pall ForteBio, USA). Kinetic responses were subjected to a global fitting using a one site binding model to obtain values for association (Kₒₙ), dissociation (Koff) rate constants and the equilibrium dissociation constant (KD). Only curves that could be reliably fitted with the software (R²>0.90) were included in the analysis.
# BLI was performed as described above.
# [15] = target: T2, human HER3 expressed on cells (HEK293 …); experiment: flow cytometry, HEK293 cells overexpressing human HER3, 20 ug/ml antibody, FITC anti-Fc secondary; same antibody on WT HEK293: 0.60; remark: listed apart in the source
# Method: as §2
# His-tagged human HER3 [16] = target: T1, His-tagged human HER3; experiment: BLI (Octet QK384), antibody on anti-human IgG capture tips, His-tagged human HER3 35-278 nM, global 1:1 fit; kdis Error 1.56E-04
# Method: as §1
# human HER2 = target: T9, human HER2 (human, UniProt P04626 23-652); experiment: ELISA, plate coated with 0.1 ug/ml human HER2, antibody titrated, absorbance 450 nm
# T9 construct: also called human HER2 (Sino Biological Inc.)
# Method: as §3, §4
# T5 sequence (G7PIG5 entry or part of it): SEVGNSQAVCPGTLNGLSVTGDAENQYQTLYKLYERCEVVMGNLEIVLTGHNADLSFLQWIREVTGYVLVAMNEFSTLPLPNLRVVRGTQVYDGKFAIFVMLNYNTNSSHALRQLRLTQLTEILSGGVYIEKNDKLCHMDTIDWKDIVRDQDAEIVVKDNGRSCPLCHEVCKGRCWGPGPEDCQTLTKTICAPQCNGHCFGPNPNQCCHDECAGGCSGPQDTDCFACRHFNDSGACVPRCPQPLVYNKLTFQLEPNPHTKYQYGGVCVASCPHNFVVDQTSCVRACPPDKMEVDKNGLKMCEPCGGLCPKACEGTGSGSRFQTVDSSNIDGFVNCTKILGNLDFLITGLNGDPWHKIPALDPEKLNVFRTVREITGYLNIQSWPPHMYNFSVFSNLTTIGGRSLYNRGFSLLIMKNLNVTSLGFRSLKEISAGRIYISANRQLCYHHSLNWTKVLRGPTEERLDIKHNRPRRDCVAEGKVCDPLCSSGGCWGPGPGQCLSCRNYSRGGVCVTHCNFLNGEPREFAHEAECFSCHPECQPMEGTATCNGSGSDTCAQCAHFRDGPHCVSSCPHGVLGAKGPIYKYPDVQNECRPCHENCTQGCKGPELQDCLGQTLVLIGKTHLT
# T7 sequence (Q62799 20-641 limits assumed): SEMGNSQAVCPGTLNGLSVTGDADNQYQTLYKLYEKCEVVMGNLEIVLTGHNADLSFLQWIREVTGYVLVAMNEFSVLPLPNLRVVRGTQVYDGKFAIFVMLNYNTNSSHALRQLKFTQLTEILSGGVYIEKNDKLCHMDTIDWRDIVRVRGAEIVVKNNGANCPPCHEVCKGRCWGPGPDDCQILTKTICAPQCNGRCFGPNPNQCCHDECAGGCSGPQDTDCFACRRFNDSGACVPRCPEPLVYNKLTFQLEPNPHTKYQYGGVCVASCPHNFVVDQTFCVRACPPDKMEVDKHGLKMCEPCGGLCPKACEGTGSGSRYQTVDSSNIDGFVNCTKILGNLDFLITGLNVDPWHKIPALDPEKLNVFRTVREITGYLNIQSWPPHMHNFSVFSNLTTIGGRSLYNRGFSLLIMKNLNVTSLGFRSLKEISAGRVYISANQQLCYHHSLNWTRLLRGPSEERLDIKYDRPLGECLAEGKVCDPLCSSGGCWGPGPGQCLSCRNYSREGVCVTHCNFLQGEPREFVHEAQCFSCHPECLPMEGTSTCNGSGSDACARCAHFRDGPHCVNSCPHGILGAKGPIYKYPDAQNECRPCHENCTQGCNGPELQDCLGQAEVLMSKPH
# T4 sequence (Q61526 20-641 limits assumed): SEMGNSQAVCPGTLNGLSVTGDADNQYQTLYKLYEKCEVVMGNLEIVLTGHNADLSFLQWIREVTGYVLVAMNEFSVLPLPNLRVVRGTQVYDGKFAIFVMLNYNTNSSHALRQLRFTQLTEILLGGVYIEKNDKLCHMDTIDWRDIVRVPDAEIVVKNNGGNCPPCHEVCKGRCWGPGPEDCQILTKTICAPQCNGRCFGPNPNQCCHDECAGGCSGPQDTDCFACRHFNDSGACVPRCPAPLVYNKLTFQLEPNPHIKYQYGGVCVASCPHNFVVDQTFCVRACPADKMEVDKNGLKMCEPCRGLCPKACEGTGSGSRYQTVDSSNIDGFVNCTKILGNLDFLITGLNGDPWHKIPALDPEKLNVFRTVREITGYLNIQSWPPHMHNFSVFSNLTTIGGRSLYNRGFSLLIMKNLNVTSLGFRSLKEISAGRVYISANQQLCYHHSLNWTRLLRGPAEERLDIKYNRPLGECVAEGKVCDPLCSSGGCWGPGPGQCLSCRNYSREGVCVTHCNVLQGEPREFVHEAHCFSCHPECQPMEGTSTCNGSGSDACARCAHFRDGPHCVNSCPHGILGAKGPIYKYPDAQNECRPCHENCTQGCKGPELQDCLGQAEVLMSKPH
binder,measurement,setting,value
"anti-HER3 clone 10D1_c90 IgG1 (antibody, V domains shown, Humanised 10D1 variant, IgG1/kappa) VH: QVQLQESGPGLVKPSQTLFLTCTVSGYSITSGYSWHWIRQHPGKGLEWIGSIRYSGGTDYNPSLKSLVTISVDTSKNQFSLKLSSVTAADTAVYYCARMTTAPWYPFDYWGQGTTVTVSS VL: DIQMTQSPSSVSASVGDRVTFTCKASQIVGSNVAWYQQKPGKAPEPLIYSASYLYSSVPSRFSGSGSGTEFTMTISSLEPEDFATYYCQQYTTHPLTFGPGTKVEIKR",Kd,His-tagged human HER3 [1],< 0.001 nM
same,% Parent (HER3 positive),[2],41.8%
same,koff,His-tagged human HER3 [3],< 1e-07 s⁻¹
same,EC50 (read off the curve),human HER3 polypeptide [4],~7 ng/mL
same,kon,His-tagged human HER3 [5],252000 M⁻¹ s⁻¹
"anti-HER3 clone 10D1_c91 IgG1 (antibody, V domains shown, Humanised 10D1 variant, IgG1/kappa) VH: QVQLQESGPGLVKPSQTLSLTCTVSGYYITSGYSWHWIRQHPGKGLEWIGSIRYSGGTDYNPSLKSLATISADTSKNQFSLKLSSVTAADTAVYYCARMTTAPWYPFDYWGQGTAVTVSS VL: DIQMTQSPSSVSASVGDRVTITCKASQIVGSNVAWYQQKPGKAPMPLIYSASYGYSGVPSRFSGSGSGTDFTLTISSLQPEDFATYYCQQYSSHPLTFGQGTKLEIKR",Kd,His-tagged human HER3 [1],0.176 nM
same,kon,His-tagged human HER3 [6],269000 M⁻¹ s⁻¹
same,EC50 (read off the curve),human HER3 polypeptide [4],~5 ng/mL
same,% Parent (HER3 positive),[7],48%
same,koff,His-tagged human HER3 [8],4.73e-05 s⁻¹
"anti-HER3 clone 10D1 IgG1 (antibody, Mouse variable regions on human IgG1/kappa constant regions (human-mouse chimeric antibody); also called 10D1P; 10D1 (parental)) heavy: not shown light: DIVMTQSQKFMSTSVGDRVSVTCKASQIVGSNVAWYQQKPGQSPKPLIYSASYRYSGVPDRFTASGSGTDFTLTITNVQSEDLAEYFCQQYSSHPLTFGAGTKLELKRTVAAPSVFIFPPSDEQLKSGTASVVCLLNNFYPREAKVQWKVDNALQSGNSQESVTEQDSKDSTYSLSSTLTLSKADYEKHKVYACEVTHQGLSSPVTKSFNRGEC",Kd,His-tagged human HER3 [1],9.58 nM
same,EC50,mouse HER3,0.137 nM
same,kon,His-tagged human HER3 [9],180000 M⁻¹ s⁻¹
same,EC50,human HER3 polypeptide [10],0.00588 nM
same,EC50,cynomolgus macaque HER3,0.00368 nM
same,EC50,human HER3 polypeptide [11],0.00588 nM
same,binding result,human EGFR,no binding (tested: log(M) about -6.7)
same,EC50,rat HER3,0.372 nM
same,% Parent (HER3 positive),[12],65.7%
same,% Parent (HER3 positive),[13],99%
same,Kd,[14],298 nM
same,koff,[14],0.04 s⁻¹
same,kon,[14],130000 M⁻¹ s⁻¹
same,% Parent (HER3 positive),[15],99%
same,koff,His-tagged human HER3 [16],0.00173 s⁻¹
same,binding result,human HER2,no binding (tested: log(M) about -6.7)
